Data on one protein can be found in publication PMC3955222.

Substrate in this data set: O=C=O
Description: protein film electrochemistry, KM for CO2 reduction at -560 mV. The conditions noted are these: [Ni-4Fe-4S] C-cluster active site C-cluster. Type of data set: biochemical, Carboxydothermus hydrogenoformans.

As a reminder, the Km is the substrate concentration at which the rate is half of its maximum.

B1: CODH IICh (Carboxydothermus hydrogenoformans Z-2901) (protein)
chain: AKQNLKSTDRAVQQMLDKAKREGIQTVWDRYEAMKPQCGFGETGLCCRHCLQGPCRINPFGDEPKVGICGATAEVIVARGLDRSIAAGAAGHSGHAKHLAHTLKKAVQGKAASYMIKDRTKLHSIAKRLGIPTEGQKDEDIALEVAKAALADFHEKDTPVLWVTTVLPPSRVKVLSAHGLIPAGIDHEIAEIMHRTSMGCDADAQNLLLGGLRCSLADLAGCYMGTDLADILFGTPAPVVTESNLGVLKADAVNVAVHGHNPVLSDIIVSVSKEMENEARAAGATGINVVGICCTGNEVLMRHGIPACTHSVSQEMAMITGALDAMILDYQCIQPSVATIAECTGTTVITTMEMSKITGATHVNFAEEAAVENAKQILRLAIDTFKRRKGKPVEIPNIKTKVVAGFSTEAIINALSKLNANDPLKPLIDNVVNGNIRGVCLFAGCNNVKVPQDQNFTTIARKLLKQNVLVVATGCGAGALMRHGFMDPANVDELCGDGLKAVLTAIGEANGLGGPLPPVLHMGSCVDNSRAVALVAALANRLGVDLDRLPVVASAAEAMHEKAVAIGTWAVTIGLPTHIGVLPPITGSLPVTQILTSSVKDITGGYFIVELDPETAADKLLAAINERRAGLGLPW
Regarding B1, the Km came to 8.0 ± 1.6 mM.
